Measurements reported in patent US20240252628A1.

Target: GDF8, O14793
Assay: SPR (Biacore), anti-Fc capture of receptor; very low signal
Details: remark: other sources report otherwise

Sequence of GDF8, O14793 (O14793 267-375 limits assumed): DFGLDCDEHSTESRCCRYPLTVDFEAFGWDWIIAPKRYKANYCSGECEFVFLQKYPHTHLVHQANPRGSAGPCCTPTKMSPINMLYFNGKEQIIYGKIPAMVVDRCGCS

- Kd: 15 nM
- koff: 0.0019 s⁻¹
- kon: 130000 M⁻¹ s⁻¹
B1: ALK4-Fc homodimer, P36896 24-126 (Fc fusion, not shown: a dimerising Fc or GST)
chain: SGPRGVQALLCACTSCLQANYTCETDGACMVSIFNLDGMEHHVRTCIPKVELVPAGKPFYCLSSEDLRNTHCCYTDYCNRIDLRVPSGHLKEPEHPSMWGPVE
